Results reported in paper PMC5427286.
Several values for one entry are separate records, joined by “and”; a condition that tells them apart may be missing. Equal values may be shown once.

How the values were obtained:
[1] = target: Hsp21^V181A, non-dodecameric mutational variant of Hsp21 (A. thaliana) (UniProt P31170); assay: SEC-SAXS; online SEC-SAXS, Superdex 200 Increase 10/300, 50 mM HEPES pH 7.5, 100 mM NaCl, 0.1% Tween 20, 0.15 ml/min; retention times 80-84 min; EOM with a pool of dimers and hexamers
[2] = target: Hsp21 after limited proteolysis with trypsin (NTR degraded) (A. thaliana) (UniProt P31170); assay: native gel or EMSA; non-denaturing PAGE of purified protein; also of samples withdrawn during 1-30 min of limited trypsin proteolysis

Chain of Hsp21 after limited proteolysis with trypsin (NTR degraded) (P31170 44-227): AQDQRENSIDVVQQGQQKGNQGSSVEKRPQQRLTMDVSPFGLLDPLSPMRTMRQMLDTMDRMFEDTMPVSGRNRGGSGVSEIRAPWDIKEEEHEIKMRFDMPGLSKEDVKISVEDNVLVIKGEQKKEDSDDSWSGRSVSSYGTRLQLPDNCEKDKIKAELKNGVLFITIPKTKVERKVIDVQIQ

Q: Which stoichiometry N [1] does the source give for “Hsp21^V181A, non-dodecameric mutational variant of Hsp21 (from UniProt P31170 44-227) (natural protein)” here?
A: Its stoichiometry N is 2 and 6.

Q: With “Hsp21 after limited proteolysis with trypsin (NTR degraded) (from UniProt P31170 44-227) (domain or fragment)” as the substance, how does the stoichiometry N [2] read?
A: The stoichiometry N was 12.
